Data as given in the supplement of paper PMC10724198.
± gives the standard deviation of the averaged measurements.

What was measured:
Saccharomyces cerevisiae [1] = assay: protein stability index of tFT-peptide fusion (C-terminal peptide) (PSI (0-1 scale)); higher = more stable (slower turnover); details: genetic background: wild type; temperature: 30 C
Saccharomyces cerevisiae [2] = assay: as above
Experimental: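 MPS profiling in S. cerevisiae of the tFT-X12 degron library: putative degron peptides plus stable controls, 12 aa, fused to the C-terminus of a sfGFP-mCherry timer. Cells are FACS-sorted into 8 mCherry/sfGFP bins and deep-sequenced. PSI runs from 0 (unstable) to 1 (stable). Backgrounds are wild type, das1Δ and doa10Δ at 30 °C, and wild type, das1Δ, cdc34-1 and cdc53-1 at 37 °C; 2-3 technical replicates each.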

[3] = genetic background: cdc34-1, temperature: 37 C
[4] = genetic background: cdc53-1, temperature: 37 C
[5] = genetic background: das1 deletion, temperature: 30 C
[6] = genetic background: das1 deletion, temperature: 37 C
[7] = genetic background: doa10 deletion, temperature: 30 C
[8] = genetic background: wild type, temperature: 30 C
[9] = genetic background: wild type, temperature: 37 C
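Further: PSI is a weighted mean of sequencing reads over stability bins, variants kept only with over 10 reads, mCherry proximal and sfGFP distal, peptide attached via GGGS linker.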

Row | Sequence | protein stability index (Saccharomyces cerevisiae [1]) | protein stability index (Saccharomyces cerevisiae [2]; [3]) | protein stability index (Saccharomyces cerevisiae [2]; [4]) | protein stability index (Saccharomyces cerevisiae [2]; [5]) | protein stability index (Saccharomyces cerevisiae [2]; [6]) | protein stability index (Saccharomyces cerevisiae [2]; [7]) | protein stability index (Saccharomyces cerevisiae [2]; [8]) | protein stability index (Saccharomyces cerevisiae [2]; [9])
1 | VWVISLCIGGVG | 0.314 ± 0.025 | 0.298 ± 0.0059 | 0.366 ± 0.0041 | 0.241 ± 0.026 | 0.399 ± 0.011 | 0.205 ± 0.011 | 0.225 ± 0.021 | 0.3811 ± 0.002
2 | RKNIKISKAGIG | 0.279 ± 0.1 | 0.283 ± 0.0034 | 0.394 ± 0.0056 | 0.343 ± 0.012 | 0.377 ± 0.012 | 0.31 ± 0.0041 | 0.287 ± 0.021 | 0.332 ± 0.0074
3 | GTETWVFVLLKF | 0.218 ± 0.031 | 0.102 ± 0.021 | 0.0712 ± 0.011 | 0.169 ± 0.036 | 0.224 ± 0.019 | 0.302 ± 0.026 | 0.165 ± 0.013 | 0.179 ± 0.011
4 | WFCCAQRGVIVG | 0.405 ± 0.012 | 0.446 ± 0.018 | 0.452 ± 0.028 | 0.336 ± 0.024 | 0.502 ± 0.0087 | 0.311 ± 0.011 | 0.336 ± 0.026 | 0.478 ± 0.0083
5 | LVLFVVGGWVSL | 0.445 ± 0.043 | 0.35 ± 0.023 | 0.474 ± 0.082 | 0.316 ± 0.023 | 0.551 ± 0.014 | 0.279 ± 0.0085 | 0.311 ± 0.029 | 0.54 ± 0.076
6 | IDLISRVTVVAR | 0.4 ± 0.0047 | 0.394 ± 0.02 | 0.4267 ± 0.0012 | 0.268 ± 0.036 | 0.464 ± 0.0081 | 0.2236 ± 0.0022 | 0.288 ± 0.029 | 0.441 ± 0.01
7 | VFSGGGFFLKVV | 0.3766 ± 0.0029 | 0.67453 ± 9.2e-05 | 0.765 ± 0.01 | 0.651 ± 0.024 | 0.755 ± 0.022 | 0.19 ± 0.0039 | 0.215 ± 0.023 | 0.504 ± 0.02
8 | WSNICFWCGVWS | 0.458 ± 0.057 | 0.685 ± 0.027 | 0.826 ± 0.011 | 0.673 ± 0.038 | 0.815 ± 0.033 | 0.356 ± 0.0059 | 0.39 ± 0.024 | 0.6615 ± 0.0049
9 | FLLCGVFFFFFV | 0.4286 ± 0.0014 | 0.323 ± 0.0043 | 0.405 ± 0.046 | 0.288 ± 0.025 | 0.3092 ± 0.00041 | 0.344 ± 0.012 | 0.245 ± 0.032 | 0.319 ± 0.013
10 | IERLRLRTRIIC | 0.2349 ± 0.0012 | 0.469 ± 0.053 | 0.481 ± 0.049 | 0.423 ± 0.021 | 0.542 ± 0.0096 | 0.127 ± 0.015 | 0.131 ± 0.036 | 0.13441 ± 5e-06
11 | GVVCCVVVGRMG | 0.503 ± 0.053 | 0.619 ± 0.024 | 0.659 ± 0.024 | 0.474 ± 0.024 | 0.665 ± 0.018 | 0.445 ± 0.032 | 0.451 ± 0.013 | 0.63558 ± 6.8e-05
12 | TRVVSPNVILMC | 0.505 ± 0.017 | 0.6679 ± 0.00086 | 0.7417 ± 0.0073 | 0.61 ± 0.027 | 0.725 ± 0.019 | 0.5135 ± 0.0048 | 0.526 ± 0.022 | 0.673 ± 0.009
13 | WRGALHPTPVAA | 0.339 ± 0.0086 | 0.285 ± 0.018 | 0.282 ± 0.0046 | 0.249 ± 0.035 | 0.419 ± 0.0075 | 0.198 ± 0.0084 | 0.253 ± 0.029 | 0.4 ± 0.017
14 | GPILVWVMADWG | 0.447 ± 0.041 | 0.43 ± 0.036 | 0.506 ± 0.028 | 0.328 ± 0.036 | 0.5493 ± 0.00096 | 0.293 ± 0.0078 | 0.337 ± 0.018 | 0.518 ± 0.012
15 | FPPHFLPLVFLS | 0.103 ± 0.0049 | 0.436 ± 0.035 | 0.5867 ± 0.0031 | 0.56 ± 0.026 | 0.67 ± 0.0083 | 0.0786 ± 0.017 | 0.0804 ± 0.02 | 0.0988 ± 0.0048
16 | GRVAIFTLLWRI | 0.314 ± 0.12 | 0.199 ± 0.066 | 0.105 ± 0.041 | 0.256 ± 0.063 | 0.362 ± 0.01 | 0.469 ± 0.052 | 0.252 ± 0.032 | 0.29 ± 0.012
17 | AFTFLLCWLFGV | 0.467 ± 0.054 | 0.622 ± 0.024 | 0.671 ± 0.01 | 0.552 ± 0.018 | 0.627 ± 0.0065 | 0.453 ± 0.0068 | 0.454 ± 0.016 | 0.585 ± 0.041
18 | LWLFIVCWVGCV | 0.247 ± 0.033 | 0.234 ± 0.017 | 0.301 ± 0.044 | 0.201 ± 0.019 | 0.339 ± 0.014 | 0.1847 ± 0.00077 | 0.177 ± 0.025 | 0.31 ± 0.0052
19 | LGCFGSSFVFCC | 0.23 ± 0.016 | 0.565 ± 0.015 | 0.668 ± 0.02 | 0.553 ± 0.029 | 0.685 ± 0.015 | 0.138 ± 0.0034 | 0.155 ± 0.017 | 0.355 ± 0.0038
20 | FNLWCRQLASIE | 0.327 ± 0.094 | 0.181 ± 0.034 | 0.218 ± 0.0042 | 0.276 ± 0.0061 | 0.187 ± 0.0035 | 0.29904 ± 0.00019 | 0.284 ± 0.012 | 0.178 ± 0.0067

Row | Sequence | protein stability index (Saccharomyces cerevisiae [1]) | protein stability index (Saccharomyces cerevisiae [2]; [3]) | protein stability index (Saccharomyces cerevisiae [2]; [4]) | protein stability index (Saccharomyces cerevisiae [2]; [5]) | protein stability index (Saccharomyces cerevisiae [2]; [6]) | protein stability index (Saccharomyces cerevisiae [2]; [7]) | protein stability index (Saccharomyces cerevisiae [2]; [8]) | protein stability index (Saccharomyces cerevisiae [2]; [9])
21 | CVILVSFFCYSA | 0.2201 ± 0.00089 | 0.142 ± 0.021 | 0.221 ± 0.014 | 0.142 ± 0.059 | 0.322 ± 0.0071 | 0.119 ± 0.0041 | 0.132 ± 0.059 | 0.284 ± 0.0073
22 | FECLLFVNLLVI | 0.288 ± 0.02 | 0.274 ± 0.0029 | 0.345 ± 0.014 | 0.24 ± 0.042 | 0.425 ± 0.018 | 0.153 ± 0.014 | 0.188 ± 0.03 | 0.349 ± 0.012
23 | RIEGTLTARTAF | 0.579 ± 0.18 | 0.736 ± 0.069 | 0.7639 ± 0.0033 | 0.635 ± 0.033 | 0.744 ± 0.013 | 0.65 ± 0.01 | 0.66 ± 0.0097 | 0.709 ± 0.00092
24 | CQVSEWIRYRFL | 0.417 ± 0.02 | 0.681 ± 0.074 | 0.743 ± 0.01 | 0.637 ± 0.034 | 0.734 ± 0.018 | 0.247 ± 0.0032 | 0.252 ± 0.0098 | 0.386 ± 0.016
25 | TLFSFLLVFVFG | 0.411 ± 0.017 | 0.209 ± 0.0076 | 0.315 ± 0.0035 | 0.228 ± 0.035 | 0.386 ± 0.0047 | 0.185 ± 0.019 | 0.206 ± 0.031 | 0.35 ± 0.0049
26 | LLVFFLAIPSLV | 0.337 ± 0.031 | 0.286 ± 0.011 | 0.343 ± 0.02 | 0.23 ± 0.037 | 0.413 ± 0.0073 | 0.195 ± 0.014 | 0.219 ± 0.033 | 0.3853 ± 0.002
27 | AVSFVTLSIMVM | 0.195 ± 0.032 | 0.0451 ± 0.007 | 0.0958 ± 0.092 | 0.153 ± 0.016 | 0.163 ± 0.0065 | 0.135 ± 0.005 | 0.157 ± 0.018 | 0.1217 ± 0.0011
28 | VISGFVLVFRVR | 0.441 ± 0.028 | 0.509 ± 0.0038 | 0.543 ± 0.029 | 0.356 ± 0.022 | 0.591 ± 0.066 | 0.379 ± 0.026 | 0.344 ± 0.032 | 0.566 ± 0.035
29 | GLLGRCPVVVFG | 0.378 ± 0.061 | 0.385 ± 0.041 | 0.397 ± 0.013 | 0.273 ± 0.04 | 0.49774 ± 0.00049 | 0.216 ± 0.013 | 0.285 ± 0.026 | 0.463 ± 0.0047
30 | VCFFSSSCFLLV | 0.47 ± 0.035 | 0.58 ± 0.026 | 0.607 ± 0.015 | 0.507 ± 0.021 | 0.623 ± 0.01 | 0.463 ± 0.0036 | 0.45 ± 0.033 | 0.567 ± 0.0069
31 | NHKTIRIQNKSI | 0.302 ± 0.031 | 0.67783 ± 7.8e-06 | 0.775 ± 0.045 | 0.64 ± 0.034 | 0.699 ± 0.0092 | 0.146 ± 0.0041 | 0.143 ± 0.051 | 0.424 ± 0.044
32 | RTWLHLVVPVWG | 0.3367 ± 0.0022 | 0.213 ± 0.026 | 0.265 ± 0.044 | 0.222 ± 0.034 | 0.3778 ± 0.0024 | 0.19 ± 0.0051 | 0.228 ± 0.037 | 0.318 ± 0.014
33 | SLFPHIFFFFFA | 0.49 ± 0.013 | 0.43487 ± 0.00035 | 0.467 ± 0.015 | 0.386 ± 0.036 | 0.428 ± 0.0029 | 0.343 ± 0.015 | 0.295 ± 0.032 | 0.384 ± 0.0099
34 | SIVDLFRLRSLS | 0.374 ± 0.12 | 0.643 ± 0.022 | 0.722 ± 0.016 | 0.684 ± 0.008 | 0.7295 ± 0.0054 | 0.264 ± 0.032 | 0.298 ± 0.012 | 0.519 ± 0.0074
35 | LKKTLNGRRKMI | 0.416 ± 0.037 | 0.626 ± 0.019 | 0.73 ± 0.042 | 0.638 ± 0.048 | 0.736 ± 0.015 | 0.239 ± 0.063 | 0.282 ± 0.036 | 0.373 ± 0.02
36 | FVYFLLVVCFAF | 0.208 ± 0.011 | 0.1671 ± 0.0012 | 0.242 ± 0.014 | 0.184 ± 0.028 | 0.274 ± 0.0017 | 0.157 ± 0.0085 | 0.166 ± 0.021 | 0.249 ± 0.017
37 | FFCLFCLSCWVL | 0.436 ± 0.054 | 0.403 ± 0.023 | 0.422 ± 0.02 | 0.331 ± 0.015 | 0.444 ± 0.0054 | 0.323 ± 0.011 | 0.312 ± 0.04 | 0.3863 ± 0.0017
38 | GGIRLRVRFFVI | 0.247 ± 0.019 | 0.584 ± 0.061 | 0.658 ± 0.011 | 0.53 ± 0.026 | 0.6152 ± 0.0058 | 0.158 ± 0.0059 | 0.168 ± 0.023 | 0.236 ± 0.016
39 | VALSILCVFFFF | 0.309 ± 0.055 | 0.253 ± 0.021 | 0.357 ± 0.01 | 0.272 ± 0.035 | 0.4457 ± 0.0032 | 0.24 ± 0.025 | 0.273 ± 0.022 | 0.383 ± 0.0064
